Results: patent US20030166216

Assays:
[1] = system: poly (Arg, Pro, Thr) 6:3:1
[2] = system: mylein basic protein (MBP)
[3] = system: protein kinase C (PKC) substrate

B1: human checkpoint kinase (hChk1) (enzyme)
chain: MAVPFVEDWDLVQTLGEGAYGEVQLAVNRVTEEAVAVKIVDMKRAVDCPENIKKEICINKMLNHENVVKFYGHRREGNIQYLFLEYCSGGELFDRIEPDIGMPEPDAQRFFHQLMAGVVYLHGIGITHRDIKPENLLLDERDNLKISDFGLATVFRYNNRERLLNKMCGTLPYVAPELLKRREFHAEPVDVWSCGIVLTAMLAGELPWDQPSDSCQEYSDWKEKKTYLNPWKKIDSAPLALLHKILVENPSARITIPDIKKDRWYNKPLKKGAKRPRVTSGGVSESPSGFSKHIQSNLDFSPVNSASSEENVKYSSSQPEPRTGLSLWDTSPSYIDKLVQGISFSQPTCPDHMLLNSQLLGTPGSSQNPWQRLVKRMTRFFTKLDADKSYQCLKETCEKLGYQWKKSCMNQVTISTTDRRNNKLIFKVNLLEMDDKILVDFRLSKGDGLEFKRHFLKIKGKLIDIVSSQKVWLPAT
modifications: possible His tag
For B1, the “in vitro protein kinase phosphorylation assay ([gamma-33P]ATP incorporation, cpm)” value (poly (Arg, Ser) 3:1) was “hChk1 showed the highest phosphorylating activity using a calmodulin substrate or the synthetic peptide substrate, poly (Arg, Ser) 3:1”, the “in vitro protein kinase phosphorylation assay ([gamma-33P]ATP incorporation, cpm)” value [1] was “significant activity was also found with ... poly (Arg, Pro, Thr) 6:3:1” and the “in vitro protein kinase phosphorylation assay ([gamma-33P]ATP incorporation, cpm)” value (casein) was “significant activity was also found with ... casein”. The “in vitro protein kinase phosphorylation assay ([gamma-33P]ATP incorporation, cpm)” value (calmodulin substrate) was “hChk1 showed the highest phosphorylating activity using a calmodulin substrate or the synthetic peptide substrate, poly (Arg, Ser) 3:1”, the “in vitro protein kinase phosphorylation assay ([gamma-33P]ATP incorporation, cpm)” value [2] was “significant activity was also found with mylein basic protein (MBP)” and the “in vitro protein kinase phosphorylation assay ([gamma-33P]ATP incorporation, cpm)” value [3] was “significant activity was also found with ... protein kinase C (PKC) substrate”. For the same protein, the “in vitro protein kinase phosphorylation assay ([gamma-33P]ATP incorporation, cpm)” value (cAMP substrate) was “significant activity was also found with ... cAMP substrate”.
